Assay results: the supplement of paper PMC6757056
± gives the standard deviation of the averaged measurements.

B1: library; a variant is named by its letters at N, in order (parent)
chain: GCUGUCACCGGUGCUUGGUACGUUAUAUUCAGCCGGUCUGAUGAGUCUNNNNNNAGACGAAACAGC

What was measured:
[1] = variants of: B1; assay: FACS-Seq fitted mean relative fluorescence mCherry/BFP without ligand (log10 relative fluorescence); HEK293T overexpressing SLC46A1; higher = higher reporter protein expression; settings: without (6R,S)-folinic acid; ligand present: no
Method in brief: (§1)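 With or without ligand for 48 h, enriched HEK293T libraries carrying a lentiviral ribozyme-switch mCherry reporter and EF1α-BFP were sorted into 6 mCherry/BFP bins. Bin genomic DNA was amplified by PCR, barcoded and sequenced on MiSeq. Fluorescence was taken from normal fits to the resulting bin counts. Each fitted mean of log10(mCherry/BFP) was scaled to five spiked-in control ribozymes.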

[2] = variants of: B1; assay: normalized RNA/DNA level without ligand (relative to sTRSVctl = 100) (log10 (% of sTRSVctl)); HEK293T overexpressing SLC46A1; higher = less ribozyme self-cleavage, higher mRNA level; settings: without (6R,S)-folinic acid; ligand present: no
Method in brief: (§2)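 HEK293T cells received ligand, where used, 1 h before being transfected with 4 µg per 6-well well of library plasmids encoding reporter-linked ribozyme switches. After 72 h, RNA was extracted with EDTA and sequenced. RNA level was derived from RNA reads per DNA read, normalized to a spiked-in non-cleaving sequence or the top sequences, then scaled and log-transformed. Values were ×100 then log10, the top set was 25 sequences, and the minimum was 100 DNA reads.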

[3] = variants of: B1; assay: FACS-Seq fitted mean relative fluorescence mCherry/BFP with ligand (log10 relative fluorescence); HEK293T overexpressing SLC46A1; ligand concentration (+) FACS-Seq: 6 mM; higher = higher reporter protein expression; settings: with (6R,S)-folinic acid; ligand present: yes
Method in brief: as §1

[4] = variants of: B1; assay: normalized RNA/DNA level with ligand (relative to sTRSVctl = 100) (log10 (% of sTRSVctl)); HEK293T overexpressing SLC46A1; ligand concentration (+) RNA-Seq: 6 mM; higher = less ribozyme self-cleavage, higher mRNA level; settings: with (6R,S)-folinic acid; ligand present: yes
Method in brief: as §2

Variant	FACS-Seq fitted mean (log10) [1]	normalized RNA/DNA level without ligand (log10) [2]	FACS-Seq fitted mean (log10) [3]	normalized RNA/DNA level with ligand (log10) [4]
GCUGUCACCGGUGCUUGGUACGUUAUAUUCAGCCGGUCUGAUGAGUCUGAGGGAAGACGAAACAGC [GAGGGA]	0.161 ± 0.042	1.969 ± 0.017	0.0592 ± 0.019	2.04 ± 0.028
GCUGUCACCGGUGCUUGGUACGUUAUAUUCAGCCGGUCUGAUGAGUCUUAGGGAAGACGAAACAGC [UAGGGA]	0.295 ± 0.13	1.8512 ± 0.0012	0.501 ± 0.29	2 ± 0.03
GCUGUCACCGGUGCUUGGUACGUUAUAUUCAGCCGGUCUGAUGAGUCUUAGGGGAGACGAAACAGC [UAGGGG]	0.0613 ± 0.073	1.648 ± 0.0041	0.172 ± 0.14	1.97 ± 0.04
GCUGUCACCGGUGCUUGGUACGUUAUAUUCAGCCGGUCUGAUGAGUCUAAGGGUAGACGAAACAGC [AAGGGU]	-0.0258 ± 0.095	1.952 ± 0.0044	-0.308 ± 0.14	2.02 ± 0.032
GCUGUCACCGGUGCUUGGUACGUUAUAUUCAGCCGGUCUGAUGAGUCUGAGGGUAGACGAAACAGC [GAGGGU]	0.338 ± 0.027	2.001 ± 0.016	0.556 ± 0.037	2.04 ± 0.041
GCUGUCACCGGUGCUUGGUACGUUAUAUUCAGCCGGUCUGAUGAGUCUUAGGGUAGACGAAACAGC [UAGGGU]	0.607 ± 0.2	1.885 ± 0.015	0.604 ± 0.026	1.98 ± 0.049
GCUGUCACCGGUGCUUGGUACGUUAUAUUCAGCCGGUCUGAUGAGUCUCAGGUAAGACGAAACAGC [CAGGUA]	0.0884 ± 0.016	1.667 ± 0.0023	0.0948 ± 0.22	1.806 ± 0.013
GCUGUCACCGGUGCUUGGUACGUUAUAUUCAGCCGGUCUGAUGAGUCUAAGGUAAGACGAAACAGC [AAGGUA]	0.34 ± 0.014	1.74 ± 0.024	0.228 ± 0.14	1.83 ± 0.025
GCUGUCACCGGUGCUUGGUACGUUAUAUUCAGCCGGUCUGAUGAGUCUGAGGUAAGACGAAACAGC [GAGGUA]	0.345 ± 0.029	1.844 ± 0.015	0.341 ± 0.17	1.92 ± 0.033
GCUGUCACCGGUGCUUGGUACGUUAUAUUCAGCCGGUCUGAUGAGUCUUAGGUAAGACGAAACAGC [UAGGUA]	0.246 ± 0.04	1.878 ± 0.0067	0.0784 ± 0.099	1.98 ± 0.031
GCUGUCACCGGUGCUUGGUACGUUAUAUUCAGCCGGUCUGAUGAGUCUAAGGUCAGACGAAACAGC [AAGGUC]	0.209 ± 0.03	2.03 ± 0.013	0.178 ± 0.099	2 ± 0.027
GCUGUCACCGGUGCUUGGUACGUUAUAUUCAGCCGGUCUGAUGAGUCUCAGGUGAGACGAAACAGC [CAGGUG]	0.231 ± 0.12	1.96 ± 0.025	0.385 ± 0.089	1.992 ± 0.016
GCUGUCACCGGUGCUUGGUACGUUAUAUUCAGCCGGUCUGAUGAGUCUAAGGUGAGACGAAACAGC [AAGGUG]	0.462 ± 0.049	1.827 ± 0.011	0.597 ± 0.51	1.98 ± 0.04
GCUGUCACCGGUGCUUGGUACGUUAUAUUCAGCCGGUCUGAUGAGUCUGAGGUGAGACGAAACAGC [GAGGUG]	0.324 ± 0.045	1.967 ± 0.0026	0.505 ± 0.25	2.04 ± 0.043
GCUGUCACCGGUGCUUGGUACGUUAUAUUCAGCCGGUCUGAUGAGUCUUAGGUGAGACGAAACAGC [UAGGUG]	0.228 ± 0.037	1.68 ± 0.017	0.559 ± 0.21	1.96 ± 0.033
GCUGUCACCGGUGCUUGGUACGUUAUAUUCAGCCGGUCUGAUGAGUCUGAGGUUAGACGAAACAGC [GAGGUU]	-0.16 ± 0.053	1.991 ± 0.0089	-0.382 ± 0.15	2 ± 0.027
GCUGUCACCGGUGCUUGGUACGUUAUAUUCAGCCGGUCUGAUGAGUCUCAGUAAAGACGAAACAGC [CAGUAA]	0.289 ± 0.13	1.955 ± 0.0021	0.23 ± 0.14	1.99 ± 0.023
GCUGUCACCGGUGCUUGGUACGUUAUAUUCAGCCGGUCUGAUGAGUCUAAGUAAAGACGAAACAGC [AAGUAA]	0.225 ± 0.044	1.94 ± 0.021	0.18 ± 0.26	2 ± 0.043
GCUGUCACCGGUGCUUGGUACGUUAUAUUCAGCCGGUCUGAUGAGUCUGAGUAAAGACGAAACAGC [GAGUAA]	0.434 ± 0.18	1.9346 ± 0.0017	0.44 ± 0.3	1.99 ± 0.029
GCUGUCACCGGUGCUUGGUACGUUAUAUUCAGCCGGUCUGAUGAGUCUUAGUAAAGACGAAACAGC [UAGUAA]	0.0937 ± 0.063	1.937 ± 0.009	0.531 ± 0.11	1.995 ± 0.016
GCUGUCACCGGUGCUUGGUACGUUAUAUUCAGCCGGUCUGAUGAGUCUGAGUACAGACGAAACAGC [GAGUAC]	0.375 ± 0.091	1.952 ± 0.012	0.311 ± 0.16	2 ± 0.033
